Patent US6235711A, “Cell adhesion ihibiting compounds” (Zeneca Limited, priority 1996, dated 2001)
Positions of bridges follow the written chain, without caps; N, C: chain ends. Non-standard residues stand in square brackets, D forms with d. Residues, ends and D or L forms follow the SMILES beside them. No end group written: not given here. *: point of attachment. Acetyl(1-adamantyl) = O=C(CC12CC3CC(CC(C3)C1)C2)*; NMeF = CN[C@@H](Cc1ccccc1)C(=O)O

Experiments:
fibronectin [1] = target: T1, fibronectin (Homo sapiens, UniProt P05556+P13612); conditions: cited from earlier work
T1 construct: host or cells: Jurkat cells; fibronectin coated on plates

[2] = system: αvβ3 as well as αIIbβIIIa; conditions: cited from earlier work
α4β1 = target: T2, α4β1 (Homo sapiens, UniProt P05556+P13612); conditions: Jurkat cells; read-out: IC50, blocking Jurkat cell adhesion to CS-1 coated plates; cited from earlier work
T2 construct: host or cells: Jurkat cells (endogenous integrin)

Balb/C female mice = test: In vivo ovalbumin delayed type hypersensitivity model; conditions: ovalbumin in the footpad
Procedure: Balb/C female mice (20-25 g) were immunised on the flank with an emulsion of ovalbumin (Sigma; 0.1 ml subcutaneous injection of 2 mg/ml solution mixed (1:1) with complete Freunds adjuvant; Difco). Seven days later the mice were challenged by subplantar injection of ovalbumin (30 μl of 1% heat aggregated ovalbumin in saline) into the left hind foot pad. Swelling of the foot developed over a 24 hour period following which foot pad thickness was measured and compared to the pre-challenge thickness. The percentage increase in foot pad thickness was calculated. Compounds were delivered by continuous infusion at doses within the range from 10 mg/kg/day to 0.001 mg/kg/day from subcutaneous Alzet osmotic minipumps which were implanted 24 hours prior to the ovalbumin challenge. Inhibition of the inflammatory response was calculated comparing vehicle treated animals and compound treated groups (n=5 animals per group).

fibronectin [3] = conditions: cited from earlier work
[4] = target: T3, VCAM-1-IgG fusion protein (Homo sapiens, UniProt P05556+P13612); conditions: HL-60 cells; read-out: IC50, binding of HL-60 cells to VCAM-1-IgG fusion protein; cited from earlier work
T3 construct: host or cells: HL-60 cells (endogenous integrin); VCAM-1-IgG fusion protein of unstated origin
T3 sequence (P13612 34-1032): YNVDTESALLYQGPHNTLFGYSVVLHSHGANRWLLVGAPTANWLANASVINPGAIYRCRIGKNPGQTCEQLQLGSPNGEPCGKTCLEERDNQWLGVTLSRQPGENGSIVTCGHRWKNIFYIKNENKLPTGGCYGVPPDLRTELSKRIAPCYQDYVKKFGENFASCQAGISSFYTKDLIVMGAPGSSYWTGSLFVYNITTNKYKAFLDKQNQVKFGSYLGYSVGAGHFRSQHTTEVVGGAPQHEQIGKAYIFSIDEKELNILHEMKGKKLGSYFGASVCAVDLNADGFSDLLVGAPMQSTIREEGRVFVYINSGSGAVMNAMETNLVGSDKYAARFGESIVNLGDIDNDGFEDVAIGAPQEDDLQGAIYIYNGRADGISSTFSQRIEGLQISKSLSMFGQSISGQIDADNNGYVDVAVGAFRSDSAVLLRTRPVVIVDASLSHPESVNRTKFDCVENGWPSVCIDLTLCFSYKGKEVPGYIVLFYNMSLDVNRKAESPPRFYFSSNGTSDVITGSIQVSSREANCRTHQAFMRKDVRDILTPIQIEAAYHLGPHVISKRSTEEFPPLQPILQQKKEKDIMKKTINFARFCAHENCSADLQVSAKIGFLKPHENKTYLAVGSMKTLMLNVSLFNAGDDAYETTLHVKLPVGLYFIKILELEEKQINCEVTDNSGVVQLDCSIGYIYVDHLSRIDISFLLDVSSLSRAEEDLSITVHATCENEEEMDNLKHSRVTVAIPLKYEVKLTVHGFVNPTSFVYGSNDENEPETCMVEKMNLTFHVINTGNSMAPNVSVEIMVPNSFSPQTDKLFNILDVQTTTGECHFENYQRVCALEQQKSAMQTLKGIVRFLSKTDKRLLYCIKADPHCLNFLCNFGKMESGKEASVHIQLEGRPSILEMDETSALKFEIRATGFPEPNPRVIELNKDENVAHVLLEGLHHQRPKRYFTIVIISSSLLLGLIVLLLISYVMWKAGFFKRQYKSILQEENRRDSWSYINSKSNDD
T3 sequence (P05556 21-798): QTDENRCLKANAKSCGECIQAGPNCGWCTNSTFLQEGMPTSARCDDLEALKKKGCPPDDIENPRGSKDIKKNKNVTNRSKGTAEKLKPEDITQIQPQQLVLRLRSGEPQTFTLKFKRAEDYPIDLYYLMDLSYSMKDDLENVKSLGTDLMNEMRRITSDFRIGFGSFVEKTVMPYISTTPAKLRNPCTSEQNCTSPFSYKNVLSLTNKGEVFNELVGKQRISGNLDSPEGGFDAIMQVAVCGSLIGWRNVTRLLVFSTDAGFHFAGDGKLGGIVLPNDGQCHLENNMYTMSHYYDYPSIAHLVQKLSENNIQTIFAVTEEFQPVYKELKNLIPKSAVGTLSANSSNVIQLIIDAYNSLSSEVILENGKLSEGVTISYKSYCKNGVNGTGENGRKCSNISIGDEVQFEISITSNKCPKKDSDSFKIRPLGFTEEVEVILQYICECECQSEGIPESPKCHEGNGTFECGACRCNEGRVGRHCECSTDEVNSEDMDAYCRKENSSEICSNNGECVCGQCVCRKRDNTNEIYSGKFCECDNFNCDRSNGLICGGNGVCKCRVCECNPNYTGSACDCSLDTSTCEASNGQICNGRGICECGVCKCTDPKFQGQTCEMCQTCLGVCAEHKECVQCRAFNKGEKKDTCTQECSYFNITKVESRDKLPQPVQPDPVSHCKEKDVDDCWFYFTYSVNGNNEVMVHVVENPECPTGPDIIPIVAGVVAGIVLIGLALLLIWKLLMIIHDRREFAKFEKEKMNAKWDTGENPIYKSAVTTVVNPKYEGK

T2 sequence (P13612 34-1032): as the sequence (P13612 34-1032) above
T2 sequence (P05556 21-798): as the sequence (P05556 21-798) above
T1 sequence (P13612 34-1032): as the sequence (P13612 34-1032) above
T1 sequence (P05556 21-798): as the sequence (P05556 21-798) above

1-adamantaneacetyl-Cys-Gly-Arg-Gly-Asp-Ser-Pro-Cys ({Acetyl(1-adamantyl)}-CGRGDSPC; disulfide 1-8 (inferred))
binding of Jurkat cells to fibronectin coated plates (fibronectin [1]): inhibited the binding | function in αvβ3 as well as αIIbβIIIa-dependent assays [2]: inhibited function | IC50 (α4β1): 30 µM

CC(C)C[C@@H]1NC(=O)[C@H](Cc2ccccc2)N(C)C(=O)[C@@H](CCCNC(=N)N)NC(=O)[C@@H](CCCNC(=N)N)NC(=O)[C@H](C(C)C)NC(=O)[C@H](CC(=O)O)NC1=O [compound 20, c(MePhe-Leu-Asp-Val-D-Arg-D-Arg)] (cyclo(DV[dR][dR][NMeF]L))
dose required to produce a half-maximal inhibitory response in DTH (Balb/C female mice): 0.01 mg/kg/day

Arg-Cys-Asp-thioproline-Cys
leukocyte cell adhesion to fibronectin (fibronectin [3]): inhibitor | binding to the 120 kDa chymotryptic fragment of fibronectin (fibronectin [3]; fragment contains the Arg-Gly-Asp central cell binding domain): inhibited the binding

CLHGPEILDVPST
IC50 (α4β1): 30 µM

c(Glu-TripLeu-Asp-Val)
IC50 [4]: 94 µM

c(Glu-Trp-Leu-Asp-Val-Asp) (EWLDVD; cyclised; printed: Glu-Trp-Leu-Asp-Val-Asp)
IC50 [4]: > 1000 µM

c(Glu-Trp-Leu-Asp-Val-Pro-Glu-Trp-Leu-Asp-Val) (EWLDVPEWLDV; cyclised; printed: Glu-Trp-Leu-Asp-Val-Pro-Glu-Trp-Leu-Asp-Val)
IC50 [4]: > 1000 µM
